Data taken from the nanobody polyreactivity screen of Harvey et al. (2022).

Assay: yeast display, Sf9 membrane polyspecificity reagent, FACS + sequencing; frameworks hold sequencing errors
Outline: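 Genes from sorted yeast were amplified by colony PCR, read by MiSeq 2 × 250 sequencing and filtered on CDR length. These cells carried a synthetic nanobody library in Saccharomyces cerevisiae BJ5465 and were sorted by FACS into low and high (top ~1%) gates on anti-HA and streptavidin fluorescence. Polyreactivity is labelled according to the gate of origin.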

Row | Sequence | polyreactivity (PSR sort gate)
1 | QVQLVESGGGLVQAGGSLRLSCAASGRIITWYAMGCYRQAPGKERELVAAISWSGGSTYYADSVTGRFTISRDNAKNTVYLQMNSLKPEDTAVYYCNKVTVTGLYDYWGQGTQVTVSS | high polyreactivity
2 | QVQLVESGGGLVQAGGSLRLSCAASGRTFHHNAMGWYRQAPGKERELVATITAGSGSTYYADSVKGRFTISRDNAKNTVYLQMNSQKPEDTAVYYCAARVGWNKRRYDYWGQCTQVTVSS | low polyreactivity
3 | QVQLVESGGGLVQAGGSLRLSCAASGRTFAYNAMGWYRQAPGKERELVAGITGGNSRTYYADSVKGRFTISRDNAKNTVYLQMNSLKPEDTAVYYCARRFYKGTSKTNLFDYWGQGTQVTVSS | high polyreactivity
4 | QVQLVESGGGLVQAGGSLRLSCAASGRIFAYYAMGWYRQAPGTERELVAAISRSGVSTYYADSVKGRFTISRDNAKNTVYLQMNSLKPEDTAVYYCAAERYWTYYSGFVYGGDNYWGQGTQVTVSS | low polyreactivity
5 | QVQLVESGGGLVQAGGSLRLSCAASGLTLGRYAMGWYRQAPGNERELVAVITGGGSTNYADSVKGRFTISRDNAKNTVYIQLNSLKPADTAVYYCAVRGGIFQTLSTWYRYYYCGQGTQVTVSS | high polyreactivity
6 | QVQLVESGGGLVQAGGSLRLSCAASGSTFYRYAMGWYRPAPGKERELVAAISSSGGSTYYADSVKGRFTISRDNAKNTVYLQMNSLKPEDTAVYYGNADVHSQYDYWGQGTQVTVSS | low polyreactivity
7 | QVQLVESGGGLVQAGGSLRLSCAASGSIFYGYAMGWYRQAPGKERELVAVISRRGDSTYYADSVKGRFTISRDNAKNSVYLQMNSLKPEDTAVYYCASYGSLSKGFGYWGQGTQVTVSS | low polyreactivity
8 | QVQLVESGGGLVQAGGSLRLSCAASGIIFHPYAMGWYRQAPGKERELVAVITWPGDSTYYADSVKGRFTISRDNAKNTVYLQMNSLKPEDTAVYYCNAAVEGSLNGYEYWGQGTQVTVSS | low polyreactivity
9 | QVQLVESGGGLVQAGGSLRLSCAASGRTFGVYAMGSYRQAPGKEREFVATIRTTGSTNYADSVKGRFTISRDNAKNTVYLQMNSLKTEDTAVYYCAARQRQSKYYPYTTFTYDYWGQGTQVTVSS | high polyreactivity
10 | QVQLVESGGGLVQAGGSLRLSCAASGSTITYYAMGWYRQAPGKERELVAAISGSGRTHYADSVKGRFTISRDNAKNTVYLQMNSLKPEDTAVYDCNARQYTYNYAFTRCKYDYWGQGTQVTVSS | high polyreactivity
11 | QVQLVESGGGLVQAGGSLRLICAASGRIFGSYVMGWYRQAPGKERELVAAISFSGDTTYYADSVKGRFTISRDNAKNTVYLQMNSLKPDDTAVYYCAAEFPQGYYAFKYDYWGQGTQVTVSS | high polyreactivity
12 | QVQLVESGGGLVQAGGSLRLSCAASGFTFTGYAMGWYRQAPGKERELVAAISQSGGSTYADSVKGRFTISRDNAKNTVYLQMNSLKPEDTAVYYCNAATHGPFDYWGQGTQVTVSS | low polyreactivity
13 | QVQLQESGGLEQAGVSLRLSCAACGNIFYDTYICWYRQGKERELVASIDHAGSTNYADSVIGRFTISRDNAKNTSYLQRNSLKPDDTAVYYCNAEYTKTGALLIPYTYYYAEDYWGQGTQVTVSS | low polyreactivity
14 | QVQLVESGGGLVQAGGSLRLSCAASGRTFYRNAMGWYRQAPGKERELVASIRRNGGSTYYADSVKGRFTISRDNAKNTVYLQMNSLKPEDTAVYYCAARSTRRRIYGYWGQGSQVTVSS | high polyreactivity
15 | QVQLVESGGGLVQAGGSLRLSCAASGSTFGSYTMGWYRQAPGKERELVAAISYSSGRTYYADSVKGRFTISRDNAKNTVYLQMNSLKPEDTAVYYCAAVSRGRGEYDYWGQGTQLTVSS | high polyreactivity
16 | QVQLVESGGGLVQAGGSLRLSCAASGNIFTKYAMGWYRPAPGKERELVAAITWSGGSTYYADSVKGRFTISRDNAKNTVYLRMNSLKPEDTAVYYCATAHGFRRDKPYDYWGQGTQVTVSS | high polyreactivity
17 | QVQLVESGGGLVQAGGSLRLSCAASGRIFAWYAMGWYRQAPGKEREFVAASTYRAARTYYADSVKGRFTISRDNAKNTVYLQMNSLNPEDTAVYYCNRQFGRRVYISHPGPGYWGQGTQVTVSS | high polyreactivity
